T1: human CXCL5 (Homo sapiens, UniProt P42830)
T1 sequence (P42830 37-114): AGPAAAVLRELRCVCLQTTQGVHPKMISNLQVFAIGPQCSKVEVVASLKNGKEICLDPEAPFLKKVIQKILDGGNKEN

T2: HuCXCL1 (Homo sapiens, UniProt P09341)
T2 construct: made in house; host or cells: Expi293 expression system (transient), protein from the culture supernatant
T2 sequence (P09341 35-107): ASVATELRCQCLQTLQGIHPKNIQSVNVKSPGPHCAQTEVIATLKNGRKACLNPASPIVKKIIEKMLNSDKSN

T3: HuCXCL2 (Homo sapiens, UniProt P19875)
T3 construct: purchased PROTEINTECH
T3 sequence (P19875 35-107): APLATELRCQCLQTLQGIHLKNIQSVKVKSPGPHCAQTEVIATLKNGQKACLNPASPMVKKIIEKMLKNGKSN

T4: MsCXCL1 (Mus musculus, UniProt P12850)
T4 sequence (P12850 25-96): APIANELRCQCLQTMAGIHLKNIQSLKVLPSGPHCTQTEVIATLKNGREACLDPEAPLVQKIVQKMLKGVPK


Key:
[1] = molecular target: T1, human CXCL5; test: Binding to human CXCL5
[2] = tested on: OCUM-2MLN gastric cancer cell line; test: Efficacy evaluation in a model with OCUM-2MLN orthotopic transplantation; assay type: in vivo, mouse; details: 20 mg/kg intraperitoneally twice a week, 3 weeks, compared to PBS control
Description: Among the candidate antibodies, 3 types of antibodies (4A-2F7, 5A-5E11 and 028-8-12) were evaluated for their in vivo antitumor activity in a xenograft model with OCUM-2MLN orthotopic transplantation. Procedures for the evaluation are shown below.
For use as mice, female nude mice (BALB/cAJcl-nu/nu) at 5 to 6 weeks of age were purchased from Charles River Japan, Inc. As human cancer cells, a gastric cancer cell line, OCUM-2MLN, was used.
OCUM-2MLN cells were cultured in D-MEM medium (FUJIFILM Wako Pure Chemical Corporation, Japan) supplemented with 10% fetal bovine serum (FBS; NICHIREI BIOSCIENCE), 1/100 volumes of a penicillin-streptomycin mixture (FUJIFILM Wako Pure Chemical Corporation, Japan) and 1/100 volumes of a sodium pyruvate solution (SIGMA-ALDRICH). The cells to be transplanted were detached with a 0.05 w/v % trypsin/0.53 mmol/L EDTA 4Na solution (FUJIFILM Wako Pure Chemical Corporation, Japan) and washed with PBS, and 1× 10^6 cells per mouse were transplanted into the gastric wall of each mouse. […] After 3 weeks had passed from the transplantation, the mice were sacrificed, and the short- and long-axis diameters of tumors formed in their gastric walls were each measured with a caliper. The tumor size was calculated according to the following: short-axis diameter (mm)×long-axis diameter (mm).

[3] = tested on: CXCR2-expressing cells; test: In vivo CXCR2-expressing cell migration inhibitory activity, treatment model with OCUM-12 orthotopic transplantation; design: species or system mouse
From the text: The stomachs after measurement were excised and fixed overnight at room temperature with a 10% neutral buffered formalin solution (Wako Pure Chemical Industries, Ltd., Japan), followed by replacement with PBS. Then, paraffin embedding and section preparation were outsourced to Applied Medical Research Laboratory, Japan. The prepared gastric tumor sections were immunohistologically stained with an anti-CXCR2 antibody to evaluate in vivo CXCR2 cell migration inhibitory activity. The sections were deparaffinized and rehydrated, and then treated to inactivate endogenous peroxidase. After antigen activation treatment, the sections were blocked with PBS containing 2% skimmed milk and 0.1% Tween-20 (hereinafter referred to as the blocking solution), and reacted overnight at 4° C. with an anti-CXCR2 antibody (Biorbyt) as a primary antibody, which had been diluted 1667-fold with the blocking solution. After washing with PBS containing 0.1% Tween-20, the sections were reacted at room temperature for 1 hour with an HRP-labeled goat anti-rabbit IgG antibody (Abcam) as a secondary antibody. […]
The dose-response relationship between antibody dose and in vivo antitumor activity or CXCR2 migration inhibitory activity was evaluated in a xenograft treatment model with OCUM-12 orthotopic transplantation. […] After 4 weeks had passed from the transplantation, the mice were sacrificed and evaluated.

[4] = molecular target: T2, HuCXCL1; test: FACS, inhibition of binding of APC-labeled HuCXCL1 to HEK293 cells forced to express HuCXCR2; assay type: cell-based; details: APC-labeled ligand 10 μg/mL; HEK293 cells expressing HuCXCR2
Description: (§1) Chemokines are stabilized by directly binding to GAG on the cell surface and thereby allow efficient signal transduction to their receptors. […] Then, to evaluate whether Hu5A-5E11 inhibits the binding of CXCLs to cells, the binding of fluorescently labeled CXCLs to cells was measured as fluorescence intensity by flow cytometry in FACS. For this purpose, HEK293 cells forced to express HuCXCR2 were used. For use as HuCXCL1, 2, 3 and 5 and MsCXCL1, the proteins in above were labeled with APC.
(§2) The cultured cells were detached and washed with PBS, and then suspended at 5.0× 10^5 cells/mL in PBS containing 1% BSA (hereinafter referred to as the FACS buffer). Each of the APC-labeled ligands and Hu5A-5E11 were mixed at final concentrations of 10 μg/mL and 16.7 μg/mL, respectively, and reacted at room temperature for 30 minutes, and then added to the cell suspension and reacted on ice for 30 minutes. After washing with the FACS buffer, the cells were suspended again in PBS containing 1% 7-AAD, 0.5% BSA and 2 mM EDTA, followed by the above flow cytometry to measure fluorescence intensity.

[5] = molecular target: T3, HuCXCL2; test: FACS, inhibition of binding of APC-labeled HuCXCL2 to HEK293 cells forced to express HuCXCR2; assay type: cell-based; details: APC-labeled ligand 10 μg/mL; HEK293 cells expressing HuCXCR2
Description: as §1, §2

[6] = molecular target: T4, MsCXCL1; test: FACS, inhibition of binding of APC-labeled MsCXCL1 to HEK293 cells forced to express HuCXCR2; assay type: cell-based; design: purchased PROTEINTECH; host or cells: CXCR2: transfected HEK293 cells; details: APC-labeled ligand 10 μg/mL; HEK293 cells expressing HuCXCR2
Description: as §1, §2

Row | Binding to human CXCL5 [1] | Molecule | Antitumor activity (tumor growth, tumor size) [2] | Dose at which the migration suppressive effect tended to reach a plateau [3] | Inhibitory activity against the binding of HuCXCL1 to cells (fluorescence intensity) [4] | Inhibitory activity against the binding of HuCXCL2 to cells (fluorescence intensity) [5] | Inhibitory activity against the binding of MsCXCL1 to cells (fluorescence intensity) [6]
1 | also bind | 5A-5E11: mouse monoclonal anti-HuCXCL1 antibody clone; VH SEQ ID NO: 17, VL SEQ ID NO: 21 (antibody, listed as Mus musculus, V domains shown) VH: QVQLQQSGAELVRPGSSVKISCKASGYAFSDYWMNWVKQRPGQGLEWIGQIYPGDGDTNYNGKFKGKGTLTADKSSSTAYMQLNSLTSEDSAVYFCARERDYDVAMDYWGQGTSVTVSS VL: DIQMTQSPSSLSASLGGKVTITCKASQDINKYIAWFQHKPGKGPRLVIHYTSILQPGIPSRFSGVGSGRDYSFSIRNLEPEDIATYYCLQYDNLPWTFGGGTKLEIK | significantly suppress tumor growth |  |  |  | 
2 |  | Hu5A-5E11: humanized antibody VH1/VL1; VH SEQ ID NO: 76, VL SEQ ID NO: 78 (antibody, V domains shown) VH: QVQLVQSGAEVKKPGSSVKVSCKASGYAFSDYWMNWVRQAPGQGLEWIGQIYPGSGDTNYNAKFKGKGTITADKSTSTAYMELSSLRSEDTAVYYCARERDYDVAMDYWGQGTTVTVSS VL: DIQMTQSPSSLSASVGDRVTITCKASQDINKYIAWFQQKPGKAPKLVIHYTSILQPGVPSRFSGSGSGTDYTFTISSLQPEDIATYYCLQYDNLPWTFGGGTKVEIK |  | ≥ 60 μg/head | reduce the fluorescence intensity of the cells in an antibody concentration-dependent manner | reduce the fluorescence intensity of the cells in an antibody concentration-dependent manner | reduce the fluorescence intensity of the cells in an antibody concentration-dependent manner
3 | also bind | 4A-2F7: mouse monoclonal anti-HuCXCL1 antibody clone; VH SEQ ID NO: 9, VL SEQ ID NO: 13 (antibody, listed as Mus musculus, V domains shown) VH: QVTLKESGPGILKPSQTLSLTCSFSGFSLSTSGMGVDWIRQPSGKGLEWLAHIWWDDDKYYNPSLKSQLTISKDTSRNQVFLKITSVDTADTATYYCARSYGYDMDYYAMDYWGQGTSVTVSS VL: DIQMTQSPSSLSASLGERVSLTCRASQEISGYLSWLQQKPDGTIKRLIYAASTLDSGVPKRFSGSRSGSDYSLTISSLESEDFADYYCLQYASYPPWTFGGGTKLEIK | significantly suppress tumor growth |  |  |  | 

From US20250154240A1, “ANTI-HUMAN CXCL1 ANTIBODY” (CHIOME BIOSCIENCE INC., priority 2022, published 2025)
